Molecular target: CD22 on CD22-positive Raji cells and CD22 positive Ramos cells (human) (UniProt P20273)
Assay: flow cytometry on CD22-positive Raji cells, PE anti-human IgG Fc secondary, four-parameter fit

EC50: 9 nM
Substance: AGC1100, anti-CD22 monoclonal antibody hLL2, also called epratuzumab
